# Reference: the RNAGym collection of RNA variant scans (doi:10.1093/nar/gkz1192)
# B1: CPEB3 Ribozyme (parent)
# chain: UAACAGGGGGCCACAGCAGAAGCGUUCACGUCGCAGCCCCUGUCAGAUUCUGGUGAAUCUGCGAAUUCUGCUGUAUAUCUC
# Variants of: B1
# Experiment: self-cleavage, relative activity (ratio to wild type); higher = more cleavage; in vitro, sequencing
# Summary of the method: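 For each CPEB3 ribozyme variant, relative activity is its cleaved/total read fraction divided by the unmutated ribozyme's. Barcoded error-prone PCR libraries were transcribed by T7 RNA polymerase (5 hours, 37°C) and held in DNase I for 15 min before an EDTA stop, with cleavage occurring throughout. Template-switching reverse transcription and Illumina sequencing were used to read the RNAs. A 5-read minimum applied, and results are the mean of three batches.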
row,Variant,self-cleavage
1,G53A A65G,0.52
2,G53A A65U,0.22
3,G53A U66C,0.53
4,U51C G53A,1.18
5,U51C G53C,1.01
6,U51C G53U,1.2
7,G52A U74C,1.26
8,G53A U72G,1.22
9,G53A U72A,0.79
10,G53A U72C,1.23
11,G52U U69C,0.73
12,G52U U69A,0.72
13,U51G C68A,0.45
14,U51G U69G,0.49
15,U51G U69C,0.62
16,G52C U67A,0.88
17,G52C U67C,0.57
18,G52U U58C,0.87
19,U51A U74C,1.21
20,U51A U74A,1.29
21,U51A C62G,0.23
22,U51A C62A,0.22
23,U51A C62U,0.25
24,G53A U69C,0.69

row,Variant,self-cleavage
1,G53A U69A,0.67
2,G52C G70U,0.53
3,G53C,1.13
4,G53A,1.13
5,G52A A75G,0.99
6,U51A U67G,0.43
7,U51A U67C,0.4
8,U51A U67A,0.59
9,G52A U69C,0.62
10,G52A U69A,0.84
11,G52A U69G,0.98
12,U51C U66C,0.49
13,U51C U66A,0.65
14,G52A A56U,1.14
15,G52A A56G,1.19
16,G52U U76C,1.19
17,G52U U76A,1.24
18,G52U U76G,1.19
19,U51A A77G,0.93
20,U51A A77U,1.03
21,U51G A65G,0.72
22,G52A U54A,1.16
23,G52A U54G,1.16
24,G52A U54C,1.09

row,Variant,self-cleavage
1,U51A U80G,1.18
2,U51A U80A,1.07
3,U51A U80C,1
4,U51G U80A,1
5,U51G U80C,1.11
6,G52U U74C,1.28
7,G52U U74A,1.26
8,U51C A57U,0.44
9,U51C A57G,0.91
10,U51C A57C,0.44
11,G52U U54C,1.14
12,G52U U54A,1.09
13,U51C C81A,1.18
14,U51C C81U,1.15
15,U51C A77C,0.98
16,U51C A77G,1.08
17,U51C A77U,0.95
18,G52A U67A,0.51
19,G52A U80A,1.15
20,G52A U80C,1.18
21,U51C A56C,0.31
22,U51C A56G,0.84
23,U51C A56U,0.74
24,U51C U74A,1.3

row,Variant,self-cleavage
1,U51C U74G,1.21
2,U51C U74C,1.21
3,G52U A65G,0.51
4,G52U A65U,0.28
5,G53A U80A,1.18
6,G53A U80C,1.17
7,U51C U80C,1.15
8,U51C U80G,1.17
9,U51C U80A,1.13
10,U51G A77G,1.1
11,U51G A77U,1.16
12,C50U U66C,0.45
13,C50U U66A,0.22
14,G53A G55A,0.87
15,G53A G55C,1.01
16,U51G G61A,0.45
17,U51A A57G,0.56
18,U51A A57U,0.53
19,G52U A64G,1.08
20,G52U A64U,0.39
21,U51A A56U,0.68
22,U51A A56G,0.5
23,G53A U67C,0.41
24,G53A U67A,0.55

row,Variant,self-cleavage
1,G52U U66C,0.54
2,G52U U66A,0.64
3,C50U A77G,1.11
4,G53A G61A,0.73
5,U51C G63A,0.61
6,U51C G63U,1.07
7,U51C G52A,1.15
8,U51C G52C,1
9,U51C G52U,0.94
10,U51G U58C,0.37
11,G53A A64G,0.98
12,G53A A64U,0.48
13,U51A U76C,1.11
14,U51A U76G,1.09
15,U51A U76A,1.09
16,G53C U60A,0.56
17,G53C U60C,0.55
18,G53A G73C,1.14
19,U51C U60G,0.4
20,U51C U60A,0.49
21,U51C U60C,0.36
22,G53C A75U,1.12
23,G53C A75G,1.16
24,U51G U76C,1.17

row,Variant,self-cleavage
1,U51G U76A,1.19
2,U51C U72A,0.75
3,U51C U72C,1.01
4,U51C U72G,0.88
5,G53C C71U,0.57
6,G52C C68U,1.18
7,U51G U78C,0.97
8,U51C U54C,1.07
9,U51C U54G,0.82
10,U51C U54A,1.03
11,U51A G61A,1.01
12,U51G U67C,0.17
13,U51G U67A,0.43
14,U51A G73A,1.15
15,U51G C62U,0.24
16,U51G U60A,0.78
17,U51G U60C,0.39
18,U51A A75G,0.86
19,U51A A75U,1.03
20,U51C C62G,0.39
21,U51C C62U,0.31
22,U51C C62A,0.31
23,G52U U78C,1.08
24,C50U U80C,1.07

row,Variant,self-cleavage
1,G52C A56G,1.12
2,G52U G63U,1.2
3,G52U G63A,0.99
4,G52C U69C,0.86
5,G53C A56G,0.53
6,U51G U66C,0.21
7,U51G A57G,0.74
8,G53C U58C,0.68
9,U51A U54C,1.07
10,U51A U54G,0.43
11,U51A U54A,1.04
12,U51C C79A,1.24
13,U51G U74A,1.14
14,G52A U66G,0.76
15,G52A U66A,0.66
16,G52U U72A,0.73
17,G52U U72G,0.99
18,G52A A64G,1.03
19,G52A U58C,0.68
20,G52A U58G,0.34
21,G52A U58A,0.5
22,U51C G55A,0.75
23,U51C G55U,0.73
24,G52C G61C,0.34

row,Variant,self-cleavage
1,C50U A75U,1.22
2,U51A C81A,1.1
3,U51A A64G,0.93
4,U51A A64U,0.46
5,U51A A64C,0.51
6,U51A C68A,0.4
7,U51A C68U,1.04
8,G53C A57G,1.1
9,U51A G63U,1.15
10,U51A G63A,1
11,G53A G70U,0.44
12,G53A G70A,0.62
13,U51C C68U,1.14
14,U51C C68G,0.69
15,G52U A56G,1.14
16,U51C C71U,0.62
17,U51C C71A,0.53
18,G52C U54A,1.14
19,G52C U54G,1.12
20,G53C A64G,1.05
21,G53C A64U,0.42
22,C50U U72C,1.13
23,C50U U72A,0.28
24,U51C U69C,0.6

row,Variant,self-cleavage
1,U51C U69A,0.7
2,U51C U69G,0.56
3,C50U U78A,1.12
4,C50U U78C,0.97
5,U51A U69C,0.67
6,U51A U69A,0.64
7,G53A A75C,1.18
8,U51A U60C,0.59
9,U51A U60A,0.64
10,U51C A65U,0.27
11,U51C A65G,0.56
12,G53A U54C,0.92
13,G52C A64G,1.04
14,G53A U60A,0.68
15,G53A U60C,0.69
16,U51C C59A,0.29
17,U51C C59U,0.68
18,U51G A56C,0.55
19,U51G A56G,0.65
20,U51G A56U,0.52
21,C50U G61A,0.55
22,G52A U78A,1.19
23,G52A U78C,1.13
24,G53A A56U,0.79

row,Variant,self-cleavage
1,G53A A56G,1
2,U51G G70A,0.69
3,U51A U78C,0.83
4,U51A U78G,1.04
5,U51A U78A,1
6,G52A U72G,0.94
7,G52A U72A,1.13
8,G52A U72C,1.21
9,C50U U58C,0.35
10,U51C A75G,1.01
11,U51C A75U,0.98
12,U51C A75C,1.21
13,G53A C79U,1.18
14,G53A C79A,1.22
15,U51A G70A,0.61
16,U51C A64U,0.42
17,U51C A64G,0.81
18,U51G C81A,1.25
19,G52A U76C,1.06
20,G52A U76G,1.15
21,U51A U66A,0.51
22,U51A U66C,0.42
23,U51C U76C,1.07
24,U51C U76A,1.21

row,Variant,self-cleavage
1,U51C U76G,1.16
2,U51C U58C,0.37
3,U51C U58A,0.25
4,G52A G53A,1.13
5,G52A U60A,0.4
6,G52A U60G,0.44
7,G52A U60C,0.78
8,G53A C59A,0.58
9,G53A C59U,1.07
10,U51A G53A,1.27
11,U51C U67A,0.56
12,U51C U67G,0.38
13,U51C U67C,0.4
14,U51A U72G,0.91
15,U51A U72C,1.15
16,U51A U72A,0.69
17,G52C U74A,1.28
18,G52U G61C,0.22
19,G52U G61A,1.02
20,U51C G70A,0.47
21,G53C C62G,0.29
22,U51G U54C,1.06
23,U51G U54G,0.24
24,U51G U54A,1.28

row,Variant,self-cleavage
1,U51G A64U,0.52
2,U51G A64G,0.85
3,G53A U58C,0.98
4,G53A U58G,0.24
5,G53A U58A,0.48
6,U51C U78A,1.02
7,U51C U78C,0.99
8,G52U U67C,0.32
9,G52U U67G,0.33
10,G52U U67A,0.71
11,G52C U72C,1.24
12,G52C U72A,1
13,U51C G61C,0.25
14,U51C G61A,0.71
15,G53A U76C,1.01
16,G52A A57G,0.99
17,U51G G63A,0.98
18,U51G G63U,1.1
19,C50U U51C,0.8
20,C50U U51A,1.17
21,G53A A77G,1.18
22,G53A U78C,1.06
23,U51G A75U,1.22
24,U51G A75G,0.89

row,Variant,self-cleavage
1,U51G G53C,1.19
2,U51A A65U,0.21
3,U51A A65G,0.48
4,U51A G52C,1.09
5,U51A G52A,1.21
6,U51A G52U,1.16
7,G53C U67C,0.17
8,G53C U67G,0.54
9,C50U U76A,0.94
10,C50U U76C,0.98
11,U51C G73A,1.24
12,G52A A65G,0.53
13,C50U C79U,1.16
14,C50U U67C,0.31
15,G52U C68U,1.19
16,G52C A65U,0.32
17,G52C A65G,0.49
18,G52A,1.14
19,G52U,1.13
20,G52C,1.05
21,U51A G55U,1.08
22,G52A A77U,0.98
23,U51A,1.05
24,U51C,1.04

row,Variant,self-cleavage
1,U51G,0.99
2,C50U U54G,0.74
3,C50U U54C,0.77
4,C50U U69C,0.41
5,G52C A77C,1.11
6,G52C A77G,1.16
7,U51A U58C,0.54
8,U51A U58A,0.3
9,G52U U80C,1.05
10,C50U G52A,0.99
11,U51G U72G,0.57
12,U51G U72C,0.95
13,U51G U72A,0.91
14,U51A C71U,0.73
15,G53C G55A,0.98
16,G53C A65G,0.67
17,G52C U80A,1.22
18,G52C U80C,1.2
19,C50U G63U,0.82
20,G53A A57G,0.97
21,U51A C79U,1.18
22,U51A C79G,1.17
